Patent US12486322 (ANNEXON, dated 2025)

Assays:
[1] = target: T1, Cynomolgus serum derived C1q (cynomolgus monkey, UniProt A0A2K5WJV6 23-243; A0A2K5WNK0 28-253); assay: sandwich ELISA, serum C1q captured by JL-1; the high end is tied to the single-arm antibody by Table 1 (2.1)
T1 construct: also called C1q derived from monkey serum; C1q in monkey serum
Source text: (§1) Evaluation of binding to serum derived C1q: We compared binding of anti-C1q molecules to C1q from monkey and human serum. Binding to serum derived C1q was preformed using a sandwich ELISA. In this assay, a monoclonal antibody specific to the collagen tail of C1q (JL-1, Abcam) was used to capture the C1q, and then detected using the anti-C1q antibodies, which bind to the globular head groups of C1q. […] Next day, the plates were washed with dPBS (pH 7.4) and blocked with dPBS buffer containing 3% bovine serum albumin (BSA). Diluted serum samples were added to the plates and incubated overnight shaking at 4° C. Human and monkey serum samples were used at 1:2000 dilution in assay buffer, dPBS containing 0.3% BSA and 0.1% tween. Following overnight incubation at 4 C, plates were warmed to room temperature for 2 hours. […] Plates were washed with dPBS with 0.05% tween and then incubated with alkaline phosphatase conjugated anti-human Fc or Kappa antibodies at 1:3000 dilution in assay buffer. Plates were then washed, and detected using an enzyme substrate (T2214, Thermo) and read in a plate reader. Counts were background subtracted and normalized to signal at highest concentration, % normalized values were plotted as a function of concentration for each of the antibodies. Data were fit using a 4-parameter logistic fit to derive $EC50$ of binding and plotted using GraphPad Prism.

[2] = target: T2, human C1q (human, UniProt P02745 23-245; P02746 28-253; P02747 29-245); assay: cell-based or functional assay
[3] = target: T2, human C1q; assay: sandwich ELISA, serum C1q captured by JL-1; the low end is tied to human serum by Table 1
Source text: as §1

[4] = target: T1, Cynomolgus serum derived C1q; assay: sandwich ELISA, C1q from cynomolgus serum captured by JL-1
Source text: as §1

[5] = target: T2, human C1q; assay: sandwich ELISA, C1q from human serum captured by JL-1
Source text: as §1

[6] = target: T1, Cynomolgus serum derived C1q; assay: sandwich ELISA, serum C1q captured by JL-1; the high end is tied to cynomolgus serum by Table 1
Source text: as §1

[7] = target: T1, Cynomolgus serum derived C1q; assay: sandwich ELISA, serum C1q captured by JL-1; cynomolgus against human serum
Source text: as §1

[8] = target: T2, human C1q; assay: direct ELISA, purified human C1q coated on the plate, luminescence
Method: Next day, plates are washed with dPBS thrice and blocked with 3% BSA/PBS for 1 hour at room temperature (RT). […] Following incubation for 1 hour at RT, plates are washed 4× with dPBS 0.05% Tween. Then, alkaline phosphatase (AP) conjugated secondary antibodies to human kappa (Abcam) and human FC (Jackson Immunoresearch), respectively at 2000-4000-fold dilution. After an additional 1 hour of incubation at RT, plates are washed 4× with dPBS 0.05% Tween and luminescence signal was developed with AP substrate (#T2214, Thermo Scientific). Luminescence counts were measured using a luminometer (Spectramax i3×, Molecular Devices). Raw counts were fit using a 4-parameter logistic to derive $EC50$ for human C1q binding (Prism, GraphPad).

[9] = target: T2, human C1q; assay: cell-based or functional assay; remark: listed apart in the source
[10] = target: T1, Cynomolgus serum derived C1q; assay: cell-based or functional assay

T2 sequence (P02745 23-245 limits assumed, chain 1 of 3): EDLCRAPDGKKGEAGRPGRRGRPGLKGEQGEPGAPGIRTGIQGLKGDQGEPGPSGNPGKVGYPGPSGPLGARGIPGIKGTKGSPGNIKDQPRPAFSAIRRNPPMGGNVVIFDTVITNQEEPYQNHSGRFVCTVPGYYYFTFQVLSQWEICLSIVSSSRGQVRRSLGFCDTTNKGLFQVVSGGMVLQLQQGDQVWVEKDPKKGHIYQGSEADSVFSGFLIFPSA
T2 sequence (P02746 28-253 limits assumed, chain 2 of 3): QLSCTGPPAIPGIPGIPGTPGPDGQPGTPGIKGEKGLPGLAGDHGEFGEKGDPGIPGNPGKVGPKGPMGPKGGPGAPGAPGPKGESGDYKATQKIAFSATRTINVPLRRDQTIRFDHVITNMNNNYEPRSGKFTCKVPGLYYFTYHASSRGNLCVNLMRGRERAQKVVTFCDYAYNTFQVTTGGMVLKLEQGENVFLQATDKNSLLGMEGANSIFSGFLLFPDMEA
T2 sequence (P02747 29-245 limits assumed, chain 3 of 3): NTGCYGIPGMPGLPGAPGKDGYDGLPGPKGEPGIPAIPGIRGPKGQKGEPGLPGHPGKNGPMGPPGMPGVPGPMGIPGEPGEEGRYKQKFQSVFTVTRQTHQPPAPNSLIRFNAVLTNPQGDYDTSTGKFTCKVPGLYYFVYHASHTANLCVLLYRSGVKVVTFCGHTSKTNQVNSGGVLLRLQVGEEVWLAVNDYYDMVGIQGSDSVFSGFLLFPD

B1: anti-C1q single-arm antibody (with IgG4 and Fcγ receptor binding site mutation) (antibody)
light: DVQITQSPSSLSASLGERATINCRASKSINKYLAWYQQKPGKAPKLLIYSGSTLQSGIPARFSGSGSGTDFTLTISSLEPEDFAMYYCQQHNEYPLTFGQGTKLEIKRTVAAPSVFIFPPSDEQLKSGTASVVCLLNNFYPREAKVQWKVDNALQSGNSQESVTEQDSKDSTYSLSSTLTLSKADYEKHKVYACEVTHQGLSSPVTKSFNRGEC
heavy: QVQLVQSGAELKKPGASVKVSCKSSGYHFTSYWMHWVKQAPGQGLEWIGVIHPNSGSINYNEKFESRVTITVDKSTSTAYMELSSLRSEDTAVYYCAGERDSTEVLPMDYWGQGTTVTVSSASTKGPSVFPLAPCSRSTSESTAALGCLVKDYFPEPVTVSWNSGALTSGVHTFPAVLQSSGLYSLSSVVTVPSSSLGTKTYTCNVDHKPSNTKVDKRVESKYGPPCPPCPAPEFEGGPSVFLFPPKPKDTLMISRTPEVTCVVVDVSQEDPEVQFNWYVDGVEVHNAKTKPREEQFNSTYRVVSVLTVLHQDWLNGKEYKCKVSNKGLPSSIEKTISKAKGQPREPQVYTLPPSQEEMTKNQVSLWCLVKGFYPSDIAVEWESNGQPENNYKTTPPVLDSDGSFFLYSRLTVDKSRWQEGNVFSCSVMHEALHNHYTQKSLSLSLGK
chain: ESKYGPPCPPCPAPEFEGGPSVFLFPPKPKDTLMISRTPEVTCVVVDVSQEDPEVQFNWYVDGVEVHNAKTKPREEQFNSTYRVVSVLTVLHQDWLNGKEYKCKVSNKGLPSSIEKTISKAKGQPREPQVYTLPPSQEEMTKNQVSLSCAVKGFYPSDIAVEWESNGQPENNYKTTPPVLDSDGSFFLVSRLTVDKSRWQEGNVFSCSVMHEALHNHYTQKSLSLSLGK
notes: The third chain is the N-terminally truncated heavy chain (hinge-CH2-CH3, hole mutations); also called single-arm molecule; anti-C1q single-arm antibody (monovalent)
[1]
  fold weaker binding EC50 in cynomolgus serum compared to human serum: 1 to 2 fold
[2]
  IC50 for inhibition of serum hemolysis: 3 to 10 nM
[3]
  EC50: 150 to 400 nM
[4]
  EC50: 378 nM
[5]
  EC50: 178 nM
[6]
  EC50: 150 to 400 nM
[7]
  Ratio Cyno:Human (binding EC50): 2.1
[8]
  EC50: 0.05 nM
[9]
  IC50 for hemolysis inhibition (nM), Human serum: 9.9 nM
[10]
  IC50 for hemolysis inhibition (nM), Cyno serum: 5.5 nM
  IC50 for hemolysis inhibition, Ratio Cyno:Human: 0.6
